Results reported in patent US20150266967A1 (Boehringer Ingelheim, published 2015).

Key:
[1] = biological target: T1, recombinant Fcγ-receptor 3a protein, high affinity V158 allotype (UniProt P08637 17-208); assay: surface plasmon resonance, KD compared with reference antibody
T1 construct: also called Fcγ-receptor 3a V158; FC gamma receptor 3a

[2] = biological target: T2, recombinant Fcγ-receptor 3a protein, low affinity F158 allotype (UniProt P08637 17-208); assay: surface plasmon resonance, KD from ka and kd; B2, F158 allotype
T2 construct: F158 allotype; also called Fcγ-receptor 3a F158; FC gamma receptor 3a
T2 sequence (P08637 17-208 limits assumed): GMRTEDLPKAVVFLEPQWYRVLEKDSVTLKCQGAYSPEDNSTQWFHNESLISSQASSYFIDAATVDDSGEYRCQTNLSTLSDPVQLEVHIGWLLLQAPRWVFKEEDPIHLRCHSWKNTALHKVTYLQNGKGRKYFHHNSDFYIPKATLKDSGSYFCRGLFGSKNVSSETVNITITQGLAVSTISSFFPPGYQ

[3] = biological target: T1, recombinant Fcγ-receptor 3a protein, …; assay: surface plasmon resonance, KD from ka and kd
[4] = biological target: T2, recombinant Fcγ-receptor 3a protein, …; assay: surface plasmon resonance, KD from ka and kd; A2, F158 allotype

T1 sequence (P08637 17-208 F176V): as the sequence (P08637 17-208 limits assumed) above, with F160V counted along it

fold increased binding against the non Fc-engineered IgG1 reference antibody [1]	Kd [2]	Kd [3]	Kd [4]	Binder
~40 fold	21.1 nM	9.3 nM	–	CD37 antibody B2 (antibody, human IgG1, kappa, Fc-engineered CD37 antibody; copies: 2 + 2) heavy: not shown light: DIQMTQSPSSLSASVGDRVTITCRTSENVYSYLAWYQQKPGKAPKLLVSFAKTLAEGVPSRFSGSGSGTDFTLTISSLQPEDFATYFCQHHSDNPWTFGQGTKVEIKRTVAAPSVFIFPPSDEQLKSGTASVVCLLNNFYPREAKVQWKVDNALQSGNSQESVTEQDSKDSTYSLSSTLTLSKADYEKHKVYACEVTHQGLSSPVTKSFNRGEC
~40 fold	–	8.8 nM	17.5 nM	CD37 antibody A2 (antibody, human IgG1, kappa, Fc-engineered CD37 antibody; copies: 2 + 2) heavy: not shown light: DIQMTQSPASLSASVGETVTITCRTSENVYSYLAWYQQKQGKSPQLLVSFAKTLAEGVPSRFSGSGSGTQFSLKISSLQPEDSGSYFCQHHSDNPWTFGGGTELEIKRTVAAPSVFIFPPSDEQLKSGTASVVCLLNNFYPREAKVQWKVDNALQSGNSQESVTEQDSKDSTYSLSSTLTLSKADYEKHKVYACEVTHQGLSSPVTKSFNRGEC
